Source: patent US20230131847A1, “RECOMBINASE COMPOSITIONS AND METHODS OF USE” (FLAGSHIP PIONEERING INNOVATIONS VI, LLC, priority 2019, published 2023)

Key:
[1] = tested on: HEK293T landing pad cells; experiment: Dual AAV delivery of serine integrase and template DNA, ddPCR integration assay; format: cell-based, human
Source text: FIGS. 3A and 3B: Dual AAV delivery of serine integrase and template DNA to mammalian cells. (A) Schematic representation of experiment. BXB1 serine recombinase and template DNA are co-delivered as separate AAV viral vectors into BXB landing pad cell lines. (B) Droplet digital PCR (ddPCR) assay to assess integration (% CNV/landing pad) of BXB1 serine recombinase and transgene into attP-attP* landing pad cell line 3 days and 7 days post-transduction. Black dots (to the right of each pair of gray dots) indicate template only samples and fall at 0% on the y-axis. Gray dots (to the left of each pair of black dots) indicate template+BXB1 integrase and fall between 1-6% on the y-axis. […]
Two transgene configurations are assessed to determine the integration, stability, and expression using different AAV donor formats (FIG. 1B): 1) template comprising attP* or attB* that utilizes formation of double-stranded circularized DNA following AAV transduction in the cell nucleus; or 2) template comprising double attachment sites, attP-attP* or attB-attB*, that can integrate into the mammalian genome independent of double-stranded circularization of the DNA following AAV transduction in the cell nucleus. […]

[2] = tested on: HEK293T landing pad cells; experiment: mRNA delivery of integrase and AAV delivery of template DNA, ddPCR integration assay; format: cell-based, human
Source text: FIGS. 4A and 4B: mRNA delivery of BXB1 integrase and AAV delivery of template DNA to mammalian cells. (A) Schematic representation of experiment. mRNA delivery of BXB1 serine recombinase and AAV delivery of template DNA into BXB1 landing pad cell lines. (B) Droplet digital PCR (ddPCR) assay to assess integration (% CNV/landing pad) of BXB1 serine recombinase and transgene into attP-attP* landing pad cell line 3 days post mRNA transfection/AAV transduction. Black dots (to the right of each pair of gray dots) indicate template only samples and fall at 0% on the y-axis. Gray dots (to the left of each pair of black dots) indicate template+BXB1 integrase and fall at greater than 0% on the y-axis.
More specifically, a recombinase, e.g., an integrase with an amino acid sequence from Table 3A, 3B, or 3C, e.g., the Bxb1 recombinase protein (Table 3A Line No. 204), and a template DNA comprising the associated attachment site, e.g., a sequence from a LeftRegion or RightRegion of Table 2A, 2B, or 2C, e.g., the LeftRegion from Table 2A Line No. 204, are introduced into a HEK293T landing pad cell line. In this example, the recombinase is delivered as mRNA encoding the recombinase, and the template DNA is delivered via AAV.
HEK293T landing pad cells containing either the attP-attP* or attB-attB* landing pad sites (see Example 14) were seeded in a 48-well plate format at 40,000 cells/well. […] The timing of delivery was also assessed by the following conditions: 1) mRNA delivery of BXB1 integrase and AAV delivery of template DNA on the same day, 2) mRNA delivery of BXB1 integrase 24 h prior to AAV delivery of template DNA, 3) AAV delivery of template DNA 24 h prior to mRNA delivery of BXB1 integrase. ddPCR was performed to assess the integration mediated through mRNA delivery of a serine integrase and AAV delivery of a template comprising its attachment, ddPCR was performed to assay for integration (% CNV/landing pad) on day 3 post-transfection of mRNA and post-transduction of AAV. ˜2-4% integration was detected using an attP* donor to attB-attB* landing pad 293T cell line (FIG. 4B). […]

B1: BXB1 integrase: Bxb1 recombinase protein (Table 3A Line No. 204), delivered as AAV vector or mRNA (protein, UniProt P25426 1-333, looked up)
Integrase: MDAEAWLASEKRLIDNEEWTPPAEREKKAAASAITVEEYTKKWIAERDLAGGTKDLYSTHARKRIYPVLGDTPVAEMTPALVRAWWAGMGKQYPTARRHAYNVLRAVMNTAVEDKLVSENPCRIEQKAPAERDVEALTPEELDVVAGEVFEHYRVAVYILAWTSLRFGELIEIRRKDIMDDGETMKLRVRRGPARVGEKIVVGNTKTVRSKRPVTVPPHVAAMIRAHMADRTKMNKGPEALLVTTTRGQRLSKSAFTRSLKKGYAKIGRPDLRIHDLRAVGATLAAQAGATTKELMVRLGHTTPRMAMKYQMASAARDEEIARRMSELAGITP
- integration (% CNV/landing pad) by ddPCR ([1]; dual AAV2, attB* donor to attP-attP* landing pad cell line, day 3 and day 7 post-transduction, integrase MOI about 25,000, template MOI about 75,000): ~5%
- integration (% CNV/landing pad) by ddPCR, FIG. 3B ([1]; dual AAV, template+BXB1 integrase, attP-attP* landing pad cell line, 3 days and 7 days post-transduction): 1-6%
- highest % CNV/landing pad by ddPCR ([2]; AAV delivery of attachment site donor 24 h prior to mRNA delivery of BXB1 integrase, day 3): ~4%
- integration (% CNV/landing pad) by ddPCR ([2]; integrase mRNA about 1 μg + AAV template MOI about 75,000, attP* donor to attB-attB* landing pad 293T cell line, day 3): 2-4%
- integration (% CNV/landing pad) by ddPCR, FIG. 4B ([2]; template+BXB1 integrase, attP-attP* landing pad cell line, 3 days post mRNA transfection/AAV transduction): greater than 0%
